Consider one molecule from patent publication US20170121381A1 (RAMOT AT TEL AVIV UNIVERSITY, published 2017).

The test deals with T1, purified active human caspase-6 (human, UniProt P55212 24-179; P55212 194-293, limits assumed).
T1 sequence (looked up) 1: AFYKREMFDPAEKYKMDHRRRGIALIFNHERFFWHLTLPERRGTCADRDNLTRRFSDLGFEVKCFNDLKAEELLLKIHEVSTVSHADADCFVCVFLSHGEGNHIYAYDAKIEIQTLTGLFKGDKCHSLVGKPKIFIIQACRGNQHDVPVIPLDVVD
T1 sequence (looked up) 2: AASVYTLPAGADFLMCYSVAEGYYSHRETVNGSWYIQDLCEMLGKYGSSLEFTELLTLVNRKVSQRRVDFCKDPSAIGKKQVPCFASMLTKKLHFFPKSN
The test is described as follows: cell-based or functional assay.

For the molecule GRKKRRQRRRPPQSSEIVLDGTDN [ED11], the “Km of Michaelis-Menten curve, Caspase-Glo 6 assay with Z-VEID-aminoluciferin, 10 uM ED11” value stood at 3.3 fold.
